Assay results as given in publication PMC10836398, “Structural flexibility of Toscana virus nucleoprotein in the presence of a single-chain camelid antibody” (Acta Crystallographica. Section D, Structural Biology, 2024).

Target: T1, Toscana virus nucleoprotein (Toscana virus, UniProt P21701)
T1 construct: Nucleoprotein (N) of Toscana virus, coded by the S segment; Monomeric fractions of N were pooled for complex formation; also called TOSV N; N protein; source: E. coli, purified under non-denaturing conditions (1 M NaCl and 3 M urea in the lysis buffer to remove nucleic acids)
Assay: crystal structure; N–VHH complex at 13 mg/ml, hanging drop, 293 K, 0.5 M MES pH 6.5, 25% PEG 2000; space group P4(1)2(1)2, 3.8 Å
Settings: both partners purified

T1 sequence (P21701 2-253): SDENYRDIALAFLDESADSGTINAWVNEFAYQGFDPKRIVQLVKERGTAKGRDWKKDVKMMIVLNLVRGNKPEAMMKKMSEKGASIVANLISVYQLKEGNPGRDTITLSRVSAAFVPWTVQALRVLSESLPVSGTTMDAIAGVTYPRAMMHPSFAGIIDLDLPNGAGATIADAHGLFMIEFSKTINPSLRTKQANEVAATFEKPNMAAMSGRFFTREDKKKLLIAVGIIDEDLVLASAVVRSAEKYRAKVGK

B1: single-chain camelid antibody (VHH) targeting the TOSV N protein (VHH)
VHH: QVQLVESGGGSVQAGGSLRLSCAASGDAGRRYCMAWFRQAPGKEREGVAFISTANGRTDYVDSVKGRFTISQNSAKNTVYLQMNSLKPEDTAMYYCASRGYGYLSCSSYSLAAYNYWGQGTQVTVSS
notes: Selected by phage display from a llama immunised with TOSV N; The clone has no printed name; also called nanobody; source: E. coli WK6, periplasmic extract, purified (IMAC)
- binding result: binds
